Reference: publication PMC2908683

Columns and labels:
Experiment in all cases: immobilized peptide pulldown, SILAC LC-MS/MS
Conditions in all cases: reference: unphosphorylated peptide; sites Y595
Nck1 = Nck1 (UniProt P16333)
Nck2 = Nck2 (UniProt O43639)
PLCγ1 = PLCγ1 (UniProt P19174)
SLP-76 = SLP-76 (UniProt Q13094)

Measured: fold change

ADAP 586-600 (from UniProt O15117) pY595 peptide
stronger: all assays above
